Measurements reported in article PMC10530652 (BME Frontiers, 2021).

Key:
[1] = tested on: MMP activity in the alveolar space; assay: In-human alveolar FCFM imaging after endobronchial delivery of FIB One; format: in vivo; conditions: FIB One microdose <100 μg, bolus, patients with parenchymal fibrosis, n=4
Protocol: All participants were scheduled for routine, clinical diagnostic flexible bronchoscopy in our institution with a known or suspected diagnosis of fibrosis or lung cancer. All eight patients had computerized tomography performed prior to bronchoscopy and regions of active disease identified for targeted investigation.
Bronchoscopy was undertaken in an outpatient suite using local anaesthetic and conscious sedation or in theatre under general anaesthetic. FCFM was performed using a clinically approved confocal laser scanning endomicroscopy device (Cellvizio®, Mauna Kea Technologies) with a compatible imaging fibre (Alveoflex™ or Miniaturized Alveoflex™, Mauna Kea Technologies).
In initial exploratory testing, 8 patients with either endobronchial tumour or parenchymal fibrosis underwent FIB One microdosing (<100 μg, <5 mL). […] Images were recorded for at least 30 s at 12 frames/second.
All video sequences were assessed by two clinicians with clinical experience of pulmonary endomicroscopy. […] Videos were assessed to ensure stability throughout the imaging procedure. […] All video files were analysed using the Cellvizio® Viewer image processing software from Mauna Kea Technologies, Paris. […] The median RFU was calculated for each category and used as a comparative value between groups.

Crl:WI(Han) rats [2] = assay: Single intratracheal administration toxicity study of FIB One; format: in vivo; conditions: 100 µg/animal (500 µg/mL)
Protocol: (§1) Assessment of toxicity of FIB One was based on clinical signs, body weight, food consumption and clinical and anatomic pathology evaluations. Complete necropsies were performed on all animals with a recording of macroscopic abnormalities for all tissues. Organ weights and microscopic examinations were conducted as indicated.

[3] = tested on: Salmonella typhimurium strain TA98; assay: Reduced test article AMES test, TA98; format: cell-based; conditions: up to 250 μg/well, in the absence and presence of rat liver S-9
Protocol: (§2) These conditions included treatments at concentrations up to 250 μg/well (a 20-fold pro rata reduction from the standard regulatory Ames assay maximum concentration), in the absence and in the presence of a rat liver metabolic activation system (S-9).

[4] = tested on: Salmonella typhimurium strain TA100; assay: Reduced test article AMES test, TA100; format: cell-based; conditions: up to 250 μg/well, in the absence and presence of rat liver S-9
Protocol: as §2

patients [5] = assay: Laboratory results in patients after FIB One delivery; format: in vivo, human
From the text: Table S1: Laboratory results. […] Statistical analysis using paired t-test. (Hb= haemoglobin; WCC= white cell count; ALT- alanine transaminase; CRP= C Reactive Protein).

patients [6] = assay: Clinical observations in patients after procedure; format: in vivo, human
From the text: Table S2: Clinical observations.

[7] = tested on: patients with fibroproliferative lung disease; assay: Adverse events in the FIB One clinical study; format: in vivo, human
Protocol: In initial exploratory testing, 8 patients with either endobronchial tumour or parenchymal fibrosis underwent FIB One microdosing (<100 μg, <5 mL). FIB One was administered using a delivery catheter (ERBE APC catheter or TLBC) passed out of the working channel of the wedged bronchoscope into the bronchus allowing distal dissipation of the compound for alveolar imaging or applied directly onto visible tumour. FCFM imaging was performed pre- and postinstillation of FIB One, with the fibre tip positioned at the bronchial mucosa or passed into the alveolar region following transbronchial puncture, as appropriate for the clinical indication. Images were recorded for at least 30 s at 12 frames/second.
(§3) In subsequent testing the Miniaturized Alveoflex™-TLBC combination replaced the Alveoflex™ fibre. The entire apparatus was passed transbronchially to allow direct alveolar imaging before localised delivery of agents. Once transbronchial pass was accomplished, baseline lung imaging was recorded for at least 30 sec. A 500 μL microdose of either AZD1236 (14 μg/mL) or sterile PBS (control) was administered under direct observation, and further imaging was obtained for >60 sec. 500 μL of FIB One (20 μg/mL) (delivered only after at least 60s to allow MMP inhibition) was then dosed to the same area with a further 90-120 sec of imaging captured. If considerable movement due to breathing or coughing was encountered, imaging was halted and a new segment identified. Up to 6 segments of interest were investigated per patient determined by patient tolerance.
Table S5: Patient demographics and AEs part B. Three patients reported adverse events within the 24h period post procedure all of which are commonly associated with flexible bronchoscopy.

[8] = tested on: MMP activity in the alveolar space; assay: In vivo assessment of FIB One and AZD1236 with TLBC in patients; parameters: species or system human; conditions: 500 μL AZD1236 14 μg/mL predelivered, then 500 μL FIB One 20 μg/mL, nine patients
Protocol: as §3
All video sequences were assessed by two clinicians with clinical experience of pulmonary endomicroscopy. Frames with excessive movement or lack of recognizable alveolar structure were removed from analysis. Videos were assessed to ensure stability throughout the imaging procedure. […] All video files were analysed using the Cellvizio® Viewer image processing software from Mauna Kea Technologies, Paris. […] The median RFU was calculated for each category and used as a comparative value between groups.

Crl:WI(Han) rats [9] = assay: Single intratracheal administration toxicity study of AZD1236; format: in vivo, rat; conditions: 35 µg/animal (70 µg/mL)
Protocol: as §1, with “AZD1236” for “FIB One”, “consumption,” for “consumption and”

For (Pro-Phe-Gly-Nle-Lys-βAla)3 [FIB One], the “alveolar FCFM fluorescent signal following endobronchial delivery” value [1] was “increased fluorescent signal”, the “deaths, clinical signs, body weight, food consumption, clinical or anatomic pathology” value (Crl:WI(Han) rats [2]) was “no deaths, no adverse clinical signs and no effects of treatment” and the mutation induction [3] was “did not induce mutation”. The mutation induction [4] was “did not induce mutation”, the Potassium (patients [5]; blood 4-6 hours post FIB One delivery, mean (sd), baseline 4.3 (0.4)) was 4.2 (0.4) mmol/L and the Urea (patients [5]; blood 4-6 hours post FIB One delivery, mean (sd), baseline 4.6 (1.3)) was 4.7 (1.1) mmol/L. For the same substance, the CRP (patients [5]; blood 4-6 hours post FIB One delivery, mean (sd), baseline 5.4 (8.1)) was 5.2 (8.1) mg/L, the WCC (patients [5]; blood 4-6 hours post FIB One delivery, mean (sd), baseline 7.6 (1.1), p <0.0001) was 10.9 (2.9) x10^9/L and the Bilirubin (patients [5]; blood 4-6 hours post FIB One delivery, mean (sd), baseline 12.5 (5.3)) was 12.4 (4.6) umol/L. The ALT (patients [5]; blood 4-6 hours post FIB One delivery, mean (sd), baseline 25.2 (18.2)) was 23.8 (15.2) IU/L, the Creatinine (patients [5]; blood 4-6 hours post FIB One delivery, mean (sd), baseline 77.5 (11.5)) was 77.3 (12.1) umol/L and the Sodium (patients [5]; blood 4-6 hours post FIB One delivery, mean (sd), baseline 138.9 (2.7), p 0.01) was 137.7 (3.2) mmol/L. The Hb (patients [5]; blood 4-6 hours post FIB One delivery, mean (sd), baseline 148.6 (11.3), p 0.0002) was 143 g/L, the Platelets (patients [5]; blood 4-6 hours post FIB One delivery, mean (sd), baseline 221.5 (53.2)) was 221.2 (52.6) x10^9/L and the “clinically significant alterations of laboratory results” value (patients [5]; pre procedure vs 4-6 hours post FIB One delivery) was “no clinically significant alterations”. The “Respiratory Rate” value (patients [6]; Hour 1, mean (s.d.), baseline 16 (1)) was 16 (2) bpm, the Temperature (patients [6]; Hour 1, mean (s.d.), baseline 36.6 (0.5)) was 36.4 (0.4) C and the “Heart Rate” value (patients [6]; Hour 1, mean (s.d.), baseline 76 (13)) was 69 (13) bpm. For the same substance, the “Oxygen Saturations” value (patients [6]; Hour 1, mean (s.d.), baseline 96 (1)) was 97 (2) %, the “Systolic BP” value (patients [6]; Hour 1, mean (s.d.), baseline 142 (22)) was 124 (20) mmHg and the “Heart Rate” value (patients [6]; Hour 2, mean (s.d.)) was 67 (18) bpm. For the same substance, the “Oxygen Saturations” value (patients [6]; Hour 2, mean (s.d.)) was 97 (2) %, the “Respiratory Rate” value (patients [6]; Hour 2, mean (s.d.)) was 17 (1) bpm and the “Systolic BP” value (patients [6]; Hour 2, mean (s.d.)) was 124 (18) mmHg. For the same substance, the Temperature (patients [6]; Hour 2, mean (s.d.)) was 36.4 (0.6) C, the “Heart Rate” value (patients [6]; Hour 3, mean (s.d.)) was 71 (12) bpm and the “Oxygen Saturations” value (patients [6]; Hour 3, mean (s.d.)) was 96 (2) %. The “Respiratory Rate” value (patients [6]; Hour 3, mean (s.d.)) was 16 (1) bpm, the “Systolic BP” value (patients [6]; Hour 3, mean (s.d.)) was 122 (32) mmHg and the Temperature (patients [6]; Hour 3, mean (s.d.)) was 36.5 (0.4) C. The “Heart Rate” value (patients [6]; Hour 4, mean (s.d.)) was 77 (14) bpm, the “Oxygen Saturations” value (patients [6]; Hour 4, mean (s.d.)) was 96 (2) % and the “Respiratory Rate” value (patients [6]; Hour 4, mean (s.d.)) was 16 (1) bpm. For the same substance, the “Systolic BP” value (patients [6]; Hour 4, mean (s.d.)) was 125 (17) mmHg, the Temperature (patients [6]; Hour 4, mean (s.d.)) was 36.8 (0.4) C and the “clinically significant variation of clinical observations” value (patients [6]; between baseline and point of discharge from study (hour 4)) was “no clinically significant variation”. The “Adverse Events” value ([7]; Part A, one line per patient DO01-DO08, FIB One microdose <100 μg) was “Nil and Haemoptysis and Cough and Fever”, the “Adverse Events” value ([7]; Part B, one line per patient DO09-DO17, FIB One with or without AZD1236 via TLBC, within 24h post procedure) was “Nil and Cough and Cough Fever and Haemoptysis” and the significant adverse events ([7]; eight patients, endobronchial FIB One bolus) was “no significant adverse events”.

For AZD1236, the “drug-target engagement within the alveolar space” value [8] was “in situ in vivo drug-target engagement”, the “deaths, clinical signs, body weight, food consumption, clinical or anatomic pathology” value (Crl:WI(Han) rats [9]) was “no deaths, no adverse clinical signs and no effects of treatment” and the “tolerability, acute or delayed toxicity” value (Crl:WI(Han) rats [9]) was “well tolerated with no evidence of acute or delayed toxicity”.
